Measurements taken from patent US20240270826A1 (NATIONAL RESEARCH COUNCIL OF CANADA, published 2024).
Like-named read-outs stand apart in the source and are kept apart here.

Tests used:
[1] = target: Human SARS-CoV-2_Wuhan S (SmT1) (SARS-CoV-2 (Wuhan), UniProt P0DTC2 14-1208); assay: flow cytometry SVNA, VHH vs biotin-S binding to Vero E6 ACE2
[2] = target: T1, SARS-CoV-2 S2 (aa686-1208) (Wuhan) (SARS-CoV-2 Wuhan, UniProt P0DTC2 686-1208); assay: SPR, antigen on chip
T1 construct: NRC; FLAG, 6xHis tags

[3] = target: T2, SARS-CoV-2 S1 (aa16-685) (Wuhan) (SARS-CoV-2 Wuhan, UniProt P0DTC2 16-685); assay: SPR, antigen on chip
T2 construct: NRC; FLAG, 6xHis tags

[4] = target: T3, SARS-CoV-2 spike trimer S (Wuhan, SmT1) (SARS-CoV-2 Wuhan); assay: SPR, antigen on chip
T3 construct: extracellular domain

[5] = target: T4, Human SARS-CoV-2_Wuhan S (SmT1) (SARS-CoV-2 (Wuhan), UniProt P0DTC2 14-1208); assay: SPR, VHH over immobilised S
SARS-CoV spike (S) = SARS-CoV spike (S) (SARS-CoV, UniProt P59594 14-1195); assay: SPR, VHH over immobilised S
[6] = target: T4, Human SARS-CoV-2_Wuhan S (SmT1); assay: SPR, VHH over immobilised S; remark: listed apart in the source

B1: NRCoV2-20 VHH (VHH)
VHH: EVQLQQSGGGLVQPGGSLRLSCAASGRTFSNYVVGWFRQAPQAPGKDHEFVAVISGSDTETYYADSVKGRFTISRDNAKNTVYLQMNSLKPEDTAVYYCAADRGMSYYYTRATEYYYWGQGTQVTVSS
IC50 [1]: 5.1 nM | IC99 [1]: 1370 nM | Imax % [1]: 43%

B2: NRCoV2-SR01 VHH (VHH)
VHH: EVQLVQSGGGSVQAGGSLRLSCVASGFTFDNYAIGWFRQAPGKEREGVSCISGNGGVTIYADSVKGRFTISRDNAKNLVYLQMNSLKPEDTAVYYCAATGIRSTWSVYGCSRLAGPYDYWGQGTQVTVSS
binding result [2]: no binding | Kd [3]: 0.437 nM | koff [3]: 0.00158 s⁻¹ | kon [3]: 3.63e+06 M⁻¹ s⁻¹ | Kd [4]: 0.445 nM | koff [4]: 0.00123 s⁻¹ | kon [4]: 2.77e+06 M⁻¹ s⁻¹

B3: NRCoV2-SR02 VHH (VHH)
VHH: EVQLVDSGGGLVQAGGSLRLSCTASEFTLNYYSIGWFRQSPGKEREGVSCIRYSGGGIDYADSVKGRFTISRDNAKNTVYLTMNSLKPEDTAVYYCAADRLYSRACPTAGGRNYWGQGTQVTVSS
binding result [2]: no binding | Kd [3]: 0.53 nM | koff [3]: 0.000555 s⁻¹ | kon [3]: 1.05e+06 M⁻¹ s⁻¹ | Kd [4]: 0.59 nM | koff [4]: 0.000571 s⁻¹ | kon [4]: 967000 M⁻¹ s⁻¹

B4: NRCoV2-SR03 VHH (VHH)
VHH: AVQLVDSGGGLVQAGGSLRLSCAASGSIFSNNHMGWYRQAPGKQRELVAAISSGGKTNYADFAKGRFTISRDNAKNMVYLQMNSLKPEDTAVYYCNRGGWEYRSSYYIMGPHWGQGTQVTVSS
binding result [2]: no binding | Kd [3]: 1.13 nM | koff [3]: 0.00103 s⁻¹ | kon [3]: 905000 M⁻¹ s⁻¹ | Kd [4]: 1.01 nM | koff [4]: 0.00102 s⁻¹ | kon [4]: 1.01e+06 M⁻¹ s⁻¹

B5: NRCoV2-SR04 VHH (VHH)
VHH: QVQLVESGGGLVQAGGSLRLSCAASGRTFSSHTVGWYRQAPGKQRDLVAAISMGGNTNYADYADSVKGRFTISRDNAKNTLYLQMNSLKPEDTAVYYCNTAALVGNRLLPMATITWGQGTQVTVSS
binding result [2]: no binding | Kd [3]: 0.226 nM | koff [3]: 0.000493 s⁻¹ | kon [3]: 2.18e+06 M⁻¹ s⁻¹ | Kd [4]: 0.14 nM | koff [4]: 0.000335 s⁻¹ | kon [4]: 2.39e+06 M⁻¹ s⁻¹

B6: NRCoV2-SR13 VHH (VHH)
VHH: EVQLVESGGGLVTTGGSLRLSCATSGSRFGSKHMAWYRQAPGKQRDLVAAISSGGSTHYGSSVKGRFTISRDNAKSTVYLQMNSLNPEDTAVFYCNMGGWDYRSNTYIPGSRSDYWGQGTQVTVSS
binding result [2]: no binding | Kd [3]: 2.43 nM | koff [3]: 0.00545 s⁻¹ | kon [3]: 2.25e+06 M⁻¹ s⁻¹ | Kd [4]: 2.62 nM | koff [4]: 0.00481 s⁻¹ | kon [4]: 1.83e+06 M⁻¹ s⁻¹

B7: NRCoV2-SR16 VHH (VHH)
VHH: QVQLVQSAGGLVQAGGSLRLSCVVSGTTFSRYHMGWHRQAPGKQRDFVAGISTSGAVTYADSAKGRFTISRDNAKNTVYLEMNSLKLEDTALYYCNTGGWDYRSSTFIMGLNWGQGTQVTVSS
binding result [2]: no binding | Kd [3]: 1.55 nM | koff [3]: 0.00115 s⁻¹ | kon [3]: 739000 M⁻¹ s⁻¹ | Kd [4]: 1.82 nM | koff [4]: 0.0012 s⁻¹ | kon [4]: 657000 M⁻¹ s⁻¹

B8: NRCoV2-05 VHH (VHH)
VHH: EVKLVQSGGGLVQPGGSLRLSCAASGFIFSNYAMNWVRQAPGKGLEWVSGINSGGGDTRYADSVKGRFTVSRDNAKNTLYLQMNSLKPEDTGVYYCSKGPVSSYYGSGYDYRGQGTQVTVSS
IC50 [1]: 9.5 nM | IC99 [1]: 14.2 nM | Imax % [1]: 97%

B9: NRCoV2-10 VHH (VHH)
VHH: QLQLQESGGGLVQPGGSLTLSCAASGNTFSRSNMHWYRQAPGAQREWVAAISSRGISTYAYSAKGRFTISRDNAKNTVSLQMNSLKPEDTAVYYCYAADDLGDYWGQGTQVTVSS
IC50 [1]: 16.1 nM | IC99 [1]: 121 nM | Imax % [1]: 50%

B10: NRCoV2-14 VHH (VHH)
VHH: EVQLVSSGGGLVQAGGSLRLSCEASGTTFSHYAVGWYRQAPGKQREWVASISVFGSTTYGGSVAGRFTISRDNDKNTVDLQMNSLKPEDTAVYYCHAVNADIGGDYWGQGTQVTVSS
IC50 [1]: 21.3 nM | IC99 [1]: 17400 nM | Imax % [1]: 54%

B11: NRCoV2-15 VHH (VHH)
VHH: EVQLVSSGGGLVEAGGSLRLSCIASGSTSGRNTMGWFRQAPGKQREWVAIVSTSGATNYAGSVKGRFTLSRDNAKNAVYLQMNNLKPEDTAVYYCYAAYGGGGDYWGQGTQVTVSS
IC50 [1]: 12.1 nM | IC99 [1]: 233 nM | Imax % [1]: 44%

B12: NRCoV2-18 VHH (VHH)
VHH: EVQLVESGGGLVQAGGSLRLSCVASGITISGYNMAWWRQTRGKQTERVAFINSGGSTTYSDSVKGRFTISRDNGKNTAYLQMNSLNAEDTADYFCSLHTSHDYWGQGTQVTVSS
IC50 [1]: 8.9 nM | IC99 [1]: 133 nM | Imax % [1]: 51%

B13: NRCoV2-S2A4 VHH (VHH)
VHH: QVQLVQSGGGLVQAGGSLRLSCAVSGSPFRSNVMEWYRQAPGKQRELVASISTGGSRTYTDSVKGRFTISRDNAKNEAFLQMNSLKPEDTAVYYCHAAARDSHGIYLLDTWGQGTQVTVSS
Kd [2]: 14.7 nM | koff [2]: 0.000414 s⁻¹ | kon [2]: 28100 M⁻¹ s⁻¹ | binding result [3]: no binding | Kd [4]: 12.8 nM | koff [4]: 0.000446 s⁻¹ | kon [4]: 34900 M⁻¹ s⁻¹

B14: NRCoV2-MRed04 VHH (VHH)
VHH: EVQLVESGGGLVQPGRSLRLSCAASGNSFSISTMGWFRQAPGKERELVASIWSDTTTSYADSVKGRFTISTDNTRTKVYLQMSSLNPEDTAVYYCAADRGFVVRGQYDYWGQGTQVTVSS
IC50 [1]: 6.1 nM | IC99 [1]: 124 nM | Imax % [1]: 53%

B15: NRCoV2-MRed05 VHH (VHH)
VHH: EVQLVESGGGLVQPGGSLRLSCAASGFTLDYYAIGWFRQAPGKEREGVSCISSSDGSTLYADSVKGRFTISRDNAKNTVYLQMNSLKPEDTAVYYCATGPQAYYSGSYYFQCPQAGMDYWGKGTQVTVSS
IC50 [1]: 15 nM | IC99 [1]: 184 nM | Imax % [1]: 88%

B16: NRCoV2-S2G3 VHH (VHH)
VHH: QVQLVQSGGGSVQAGGSLRLSCAASGSTFGIFLMGWRRQAPGKQRELVAHITSGGATNYADSVKGRFTISRDNAKNTVYLQMNSLEPEDTAVYYCYTTKRDDASVYWGQGTQVTVSS
Kd [2]: 4.28 nM | koff [2]: 0.000627 s⁻¹ | kon [2]: 147000 M⁻¹ s⁻¹ | binding result [3]: no binding | Kd [4]: 3.74 nM | koff [4]: 0.000607 s⁻¹ | kon [4]: 162000 M⁻¹ s⁻¹

B17: NRCoV2-S2G4 VHH (VHH)
VHH: QVQLVQSGGGLVQAGGSLTLSCAPSGSTFSGYATNWYRQAPGKQRELVATISSDGDKNYADSVKGRFTISRDNAKNTVYLQMNSLKPEDTAVYYCNKHWWTGDWWGQGTQVTVSS
Kd [2]: 0.413 nM | koff [2]: 0.000382 s⁻¹ | kon [2]: 925000 M⁻¹ s⁻¹ | binding result [3]: no binding | Kd [4]: 0.232 nM | koff [4]: 0.000207 s⁻¹ | kon [4]: 893000 M⁻¹ s⁻¹

B18: NRCoV2-S2F3 VHH (VHH)
VHH: EVQLVQSGGGLVQAGGSLRLSCATSVRILSVPAMGWYRQAPGKEREMVAVITSGGSTNYADSVKGRFTISRDNAKNTVYLQMNSLKLEDTAVYQCNLRDILSQPFWGQGTQVTVSS
Kd [2]: 6.22 nM | koff [2]: 0.000629 s⁻¹ | kon [2]: 101000 M⁻¹ s⁻¹ | binding result [3]: no binding | Kd [4]: 3.03 nM | koff [4]: 0.000473 s⁻¹ | kon [4]: 156000 M⁻¹ s⁻¹

B19: NRCoV2-MRed19 VHH (VHH)
VHH: EVQLVESGGGLVQPGGSLRLSCAASTIIFKGQTMGWFRQAPGNERELVATMTTSGSANYADSVKGRFTISRDNEKTVTLQMNSLKPEDTALYYCYMHSVYYGIDYWGKGTQVTVSS
Kd [5]: 9.07 nM | Kd (SARS-CoV spike (S)): 24.6 nM | koff (SARS-CoV spike (S)): 0.00614 s⁻¹ | kon (SARS-CoV spike (S)): 249000 M⁻¹ s⁻¹ | Kd [6]: 9.07 nM | koff [6]: 0.00118 s⁻¹ | kon [6]: 131000 M⁻¹ s⁻¹

B20: NRCoV2-MRed20 VHH (VHH)
VHH: EVQLVESGGGSVQAGGSLRLSCAASGLSFSSYDMGWFRQAPGKEREFVAAIRESGSGTYYADSVKGRFTISRDNAKNTVYLQVSSLKPEDTAVYTCAAKPPFYGSGTYSTPRAYLYWGQGTQVTVSS
Kd [5]: 0.092 nM | Kd (SARS-CoV spike (S)): 10.7 nM | koff (SARS-CoV spike (S)): 0.00406 s⁻¹ | kon (SARS-CoV spike (S)): 380000 M⁻¹ s⁻¹ | Kd [6]: 0.0918 nM | koff [6]: 1.46e-05 s⁻¹ | kon [6]: 160000 M⁻¹ s⁻¹

B21: NRCoV2-MRed22 VHH (VHH)
VHH: EVQLVESGGGLVQPGGSLRLSCAASGSVFASNAMGWYRQAPGKQRELVATISSRGSTNYADSVKGRFTISRDNAKNTVYLQMNSLGPEDTAVYYCNAREFTGFDYWGQGTQVTVSS
Kd [5]: 0.51 nM | binding result (SARS-CoV spike (S)): no binding | Kd [6]: 0.506 nM | koff [6]: 0.000176 s⁻¹ | kon [6]: 347000 M⁻¹ s⁻¹

B22: NRCoV2-MRed25 VHH (VHH)
VHH: EVQLVESGGGLVQAGGSLRLSCAASGHTFSRYGMGWFRQAPGKEREFVAAISWRGDSTYYRDSVNGRFTISRDNAKNTVYLGMNSLKPEDTAVYYCAAEMWGTATIVASRYTYWGQGTQVTVSS
Kd [5]: 1.02 nM | Kd (SARS-CoV spike (S)): 2.29 nM | koff (SARS-CoV spike (S)): 5.01e-05 s⁻¹ | kon (SARS-CoV spike (S)): 21800 M⁻¹ s⁻¹ | Kd [6]: 1.02 nM | koff [6]: 0.000115 s⁻¹ | kon [6]: 112000 M⁻¹ s⁻¹
